This note sets out measurements from paper PMC3737472.

The stoichiometry N is a count of units in the complex or per binding partner.

In assay [1] the target is HSV-1 glycoprotein B full-length ectodomain including the membrane proximal region, gB773t (residues 31-773) (herpes simplex virus type 1 (HSV-1)) (UniProt P06437). Briefly: negative stain EM; SEC fractions 19-22 (run without detergent) on carbon-coated grids at 2-20 ug/ml; 0.75% uranyl formate pH 5.5 or methylamine vanadate pH 8.0.
The target is the same in assay [2]. As to the kind of experiment: cryo-EM projection images; SEC fraction 22 (run without detergent) embedded in vitreous ice on holey carbon grids.
For assay [3], the target named is HSV-1 glycoprotein B ectodomain lacking the membrane proximal region, gB730t (residues 31-730) (herpes simplex virus type 1 (HSV-1)) (UniProt P06437). As to the kind of experiment: negative stain EM; SEC fractions 19-22 (run without detergent) on carbon-coated grids at 2-20 ug/ml; 0.75% uranyl formate pH 5.5 or methylamine vanadate pH 8.0.
Assay [4] has the same target. As to the kind of experiment: cryo-EM structure; cryo-ET subtomogram averaging of gB730t trimers bound to liposomes (phosphatidylcholine:cholesterol 1.7:1), pH 5.5, protein ca. 1 mg/ml, 1 hr at 37 C; 786 particles, 2.7 nm.
Assay [5] shares this target. Briefly: SEC; Superdex200 column run in 2x PBS; gB773t also run in 2x PBS/0.5% octyl-glucoside after overnight incubation with the detergent. In general terms: SEC sorts molecules by how far they enter the pores of the column.
Assay [6] shares this target. Briefly: negative stain EM; SEC fractions 19-22 (run without detergent) on carbon-coated grids at 2-20 ug/ml; 0.75% uranyl formate pH 5.5 or methylamine vanadate pH 8.0. The source holds these as a separate data set.
The target is the same in assay [7]. Briefly: cryo-EM projection images; SEC fraction 22 (run without detergent) embedded in vitreous ice on holey carbon grids.

For the substance “HSV-1 glycoprotein B full-length ectodomain including the membrane proximal region, gB773t (residues 31-773) (from UniProt P06437 31-773) (domain or fragment)”, the stoichiometry N in assay [1] and in assay [2] was 3 throughout.

Consider “HSV-1 glycoprotein B ectodomain lacking the membrane proximal region, gB730t (residues 31-730) (from UniProt P06437 31-730) (domain or fragment)”, for which the stoichiometry N in assay [3] is 3; in assay [4] it was 3; in assay [5] it was 3; in assay [6], 6; in assay [7], 3.
